Measurements from publication PMC2763920.
Square brackets hold non-standard residues; d marks the D form. Ends that are not written are not given here. pY = N[C@@H](Cc1ccc(OP(=O)(O)O)cc1)C(=O)O

Legend:
[1] = biological target: Fyn-SH3-SH2 (GST tag cleaved with thrombin); assay: fluorescence polarisation
[2] = biological target: Fyn-SH3-SH2 (GST tag cleaved with thrombin); assay: NECEEM
[3] = biological target: Fyn-SH3-SH2 (GST tag cleaved with thrombin); assay: high-speed capillary electrophoresis

## fluorescein-EEEEPQ[pY]EEIPIYL [Fluor-Fyn peptide (fluorescein-EEEEPQpYEEIPIYL)]
[1]
  t1/2 of the complex: 53.5 s
[2]
  t1/2 of the complex: 101 s
[3]
  t1/2 of the complex: 48.4 s
